Each block holds one binder with its values, some of them ahead of it.
Experiments:
[1] = molecular target: T1, MBP-VPS20 α1 - α4 (residues 1-145) (human, UniProt Q96FZ7 1-145); assay: SPR
T1 sequence (looked up): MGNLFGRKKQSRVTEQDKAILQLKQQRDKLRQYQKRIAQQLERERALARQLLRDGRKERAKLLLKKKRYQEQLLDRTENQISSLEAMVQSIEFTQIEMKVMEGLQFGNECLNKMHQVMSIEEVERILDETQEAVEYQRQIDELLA

crystal structure = molecular target: the molecule itself; assay: crystal structure

Kd [1]: 2500 nM
B1: VPS25c, C-terminal winged helix (WH2) domain of human VPS25 (residues 102-176) (domain or fragment, UniProt Q9BRG1 102-176, looked up)
chain: RRPEEWGKLIYQWVSRSGQNNSVFTLYELTNGEDTEDEEFHGLDEATLLRALQALQQEHKAEIITVSDGRGVKFF

Binder: SRVTEQDKAILQLKQQRDKLRQYQKRIAQQLERERALA (domain or fragment, human, UniProt Q96FZ7 11-48, looked up) [VPS20 α1 (residues 11-48)]
binding result (crystal structure): binds
